B1: MKK6 D-site peptide / p38-alpha (MAPK14) L195A, full length (parent complex)
chain 1: SQSKGKKRNPGLKIPKEAFEQP
chain 2: MSQERPTFYRQELNKTVWEVPERYQNLSPVGSGAYGSVCAAFDTKTGHRVAVKKLSRPFQSIIHAKRTYRELRLLKHMKHENVIGLLDVFTPARSLEEFNDVYLVTHLMGADLNNIVKCQKLTDDHVQFLIYQILRGLKYIHSADIIHRDLKPSNLAVNEDCELKILDFGLARHTDDEMTGYVATRWYRAPEIMANWMHYNQTVDIWSVGCIMAELLTGRTLFPGTDHIDQLKLILRLVGTPGAELLKKISSESARNYIQSLAQMPKMNFANVFIGANPLAVDLLEKMLVLDSDKRITAAQALAHAYFAQYHDPDDEPVAEPYDQSFESRDFLIDEWKSLTYDEVISFVPPPLDQEEMES

Variants of: B1

Row | screen value | Variant
1 | 0.352 Z-score of the enrichment rate within one screen of 711 sequences | chain 1 K13T
2 | 1.63 Z-score of the enrichment rate within one screen of 711 sequences | chain 1 K13R
3 | 0.592 Z-score of the enrichment rate within one screen of 711 sequences | chain 1 K13W
4 | -0.111 Z-score of the enrichment rate within one screen of 711 sequences | chain 1 K13H
5 | -0.0746 Z-score of the enrichment rate within one screen of 711 sequences | chain 1 K13C
6 | -0.899 Z-score of the enrichment rate within one screen of 711 sequences | chain 1 K13E
7 | -0.836 Z-score of the enrichment rate within one screen of 711 sequences | chain 1 K13P
8 | 0.521 Z-score of the enrichment rate within one screen of 711 sequences | chain 1 S3A, chain 1 P10A
9 | 1.56 Z-score of the enrichment rate within one screen of 711 sequences | chain 1 N9A
10 | 0.0592 Z-score of the enrichment rate within one screen of 711 sequences | chain 1 N9D
11 | 1.38 Z-score of the enrichment rate within one screen of 711 sequences | chain 1 N9C
12 | -0.389 Z-score of the enrichment rate within one screen of 711 sequences | chain 1 N9E
13 | 0.914 Z-score of the enrichment rate within one screen of 711 sequences | chain 1 N9V
14 | 1.77 Z-score of the enrichment rate within one screen of 711 sequences | chain 1 N9L
15 | 1.54 Z-score of the enrichment rate within one screen of 711 sequences | chain 1 N9F
16 | 1.54 Z-score of the enrichment rate within one screen of 711 sequences | chain 1 N9G
17 | 1.25 Z-score of the enrichment rate within one screen of 711 sequences | chain 1 N9Y
18 | 1.28 Z-score of the enrichment rate within one screen of 711 sequences | chain 1 K16L
19 | 0.661 Z-score of the enrichment rate within one screen of 711 sequences | chain 1 K16W

Row | screen value | Variant
20 | -0.443 Z-score of the enrichment rate within one screen of 711 sequences | chain 1 K16G
21 | 0.798 Z-score of the enrichment rate within one screen of 711 sequences | chain 1 K16P
22 | 0.392 Z-score of the enrichment rate within one screen of 711 sequences | chain 1 K16C
23 | 1.69 Z-score of the enrichment rate within one screen of 711 sequences | chain 1 K16M
24 | -0.612 Z-score of the enrichment rate within one screen of 711 sequences | chain 1 K16E
25 | 0.893 Z-score of the enrichment rate within one screen of 711 sequences | chain 1 S3A, chain 1 K16A
26 | 0.476 Z-score of the enrichment rate within one screen of 711 sequences | chain 1 K7T
27 | 0.531 Z-score of the enrichment rate within one screen of 711 sequences | chain 1 K7Q
28 | 1.32 Z-score of the enrichment rate within one screen of 711 sequences | chain 1 K7W
29 | 0.0482 Z-score of the enrichment rate within one screen of 711 sequences | chain 1 P15A, chain 1 K16N
30 | 1.54 Z-score of the enrichment rate within one screen of 711 sequences | chain 1 P15A, chain 1 K16A
31 | 0.241 Z-score of the enrichment rate within one screen of 711 sequences | chain 1 P10G
32 | 0.742 Z-score of the enrichment rate within one screen of 711 sequences | chain 1 P10V
33 | 0.699 Z-score of the enrichment rate within one screen of 711 sequences | chain 1 P10T
34 | 0.865 Z-score of the enrichment rate within one screen of 711 sequences | chain 1 P10F
35 | 0.911 Z-score of the enrichment rate within one screen of 711 sequences | chain 1 P10W
36 | -0.469 Z-score of the enrichment rate within one screen of 711 sequences | chain 1 P10D
37 | 0.621 Z-score of the enrichment rate within one screen of 711 sequences | chain 1 P10A

The remaining lines, values behind:

Row | Variant | screen value
38 | chain 1 G5A, chain 1 K13A | -0.263 Z-score of the enrichment rate within one screen of 711 sequences
39 | chain 1 G5C | 1.42 Z-score of the enrichment rate within one screen of 711 sequences
40 | chain 1 G5A | 1.57 Z-score of the enrichment rate within one screen of 711 sequences
41 | chain 1 G5V | 1.75 Z-score of the enrichment rate within one screen of 711 sequences
42 | chain 1 G5Q | 1.53 Z-score of the enrichment rate within one screen of 711 sequences
43 | chain 1 G5D | 0.151 Z-score of the enrichment rate within one screen of 711 sequences
44 | chain 1 G5L | 4 Z-score of the enrichment rate within one screen of 711 sequences
45 | chain 1 G5H | 1.94 Z-score of the enrichment rate within one screen of 711 sequences
46 | chain 1 G11D | 0.0949 Z-score of the enrichment rate within one screen of 711 sequences
47 | chain 1 G11L | 1 Z-score of the enrichment rate within one screen of 711 sequences
48 | chain 1 G11H | 1.37 Z-score of the enrichment rate within one screen of 711 sequences
49 | chain 1 G11N | 1.3 Z-score of the enrichment rate within one screen of 711 sequences
50 | chain 1 G11P | -0.211 Z-score of the enrichment rate within one screen of 711 sequences
51 | chain 1 G11K | 2.23 Z-score of the enrichment rate within one screen of 711 sequences
52 | chain 1 G11V | 0.807 Z-score of the enrichment rate within one screen of 711 sequences
53 | chain 1 G11Q | 1.09 Z-score of the enrichment rate within one screen of 711 sequences
54 | chain 1 G11C | 1.37 Z-score of the enrichment rate within one screen of 711 sequences
55 | chain 1 K4A, chain 1 K7A | -0.395 Z-score of the enrichment rate within one screen of 711 sequences
56 | chain 1 K4A, chain 1 K16A | 0.0782 Z-score of the enrichment rate within one screen of 711 sequences

Row | Variant | screen value
57 | chain 1 K4A, chain 1 I14A | -1.18 Z-score of the enrichment rate within one screen of 711 sequences
58 | chain 1 G11A, chain 1 I14A | -0.938 Z-score of the enrichment rate within one screen of 711 sequences
59 | chain 1 K7A | 0.591 Z-score of the enrichment rate within one screen of 711 sequences
60 | chain 1 K7F | 1.5 Z-score of the enrichment rate within one screen of 711 sequences
61 | chain 1 K7E | -0.535 Z-score of the enrichment rate within one screen of 711 sequences
62 | chain 1 K7H | 0.776 Z-score of the enrichment rate within one screen of 711 sequences
63 | chain 1 K7L | 1.83 Z-score of the enrichment rate within one screen of 711 sequences
64 | chain 1 K7M | 1.7 Z-score of the enrichment rate within one screen of 711 sequences
65 | chain 1 K7C | 1.13 Z-score of the enrichment rate within one screen of 711 sequences
66 | chain 1 K7A, chain 1 I14A | -1.1 Z-score of the enrichment rate within one screen of 711 sequences
67 | chain 1 K6A, chain 1 G11A | 0.561 Z-score of the enrichment rate within one screen of 711 sequences
68 | chain 1 K4S | 0.887 Z-score of the enrichment rate within one screen of 711 sequences
69 | chain 1 K4A | 0.525 Z-score of the enrichment rate within one screen of 711 sequences
70 | chain 1 K4E | 0.242 Z-score of the enrichment rate within one screen of 711 sequences
71 | chain 1 K4W | 1.28 Z-score of the enrichment rate within one screen of 711 sequences
72 | chain 1 K4N | 0.364 Z-score of the enrichment rate within one screen of 711 sequences
73 | chain 1 K4L | 1.3 Z-score of the enrichment rate within one screen of 711 sequences
74 | chain 1 K4M | 0.845 Z-score of the enrichment rate within one screen of 711 sequences
75 | chain 1 K4T | 0.747 Z-score of the enrichment rate within one screen of 711 sequences

Source: doi:10.1101/2021.08.20.457142
